Measured values taken from article PMC7158967, “Comparative evaluation of ^68Ga-labelled TATEs: the impact of chelators on imaging” (EJNMMI Research, 2020).
Like-named read-outs stand apart in the source and are kept apart here.

How the values were obtained:
[1] = cited from earlier work
[2] = clinical; conditions: human, in vivo, total radioactivity
Method: (§1) Twenty-two healthy volunteers gave informed consent and agreed to participate in the study. […] Each patient was injected with an average activity of 1.9 MBq/kg. The timing of image acquisition ranged from 30 to 45 min after injection (3 min/bed position). The PET image was attenuated and then reconstructed using the iterative reconstruction algorithm implemented.

[3] = test system: healthy volunteers; test: clinical; conditions: human, in vivo
Method: as §1

[4] = assay type: in vitro ADME; conditions: human
Method: In vitro serum binding studies for both ^68Ga-labelled NOTA-TATE and DOTA-TATE were carried out by following a generalized procedure summarized below. One millilitre of fresh anticoagulated (heparinized) human plasma was prepared. Freshly labelled compound (3.7 MBq, 0.1 mCi) was added to three centrifuge tubes, each containing 0.1 mL of human plasma. After incubation at 37 °C for 2 h, 1 mL of ice-cold methanol was added to each tube. The mixtures were separated by centrifugation (5 min, 3000 rpm) to collect the supernatant, which was repeated three times. A gamma counter was then used to measure the radioactivity of the supernatant (A) and the precipitate (B) in counts per minute (CPM); the plasma-protein binding rate was calculated as PPB = B/(A + B)100%, and the average of three tubes was recorded.

[5] = test system: SSTR2; design: method as in PMID 28864614; conditions: read-out: half inhibitory concentration (IC50) on SSTR2; cited from earlier work
[6] = Biodistribution in AR42J tumour-bearing nude mice; conditions: mouse, in vivo
Method: (§2) Tumour cells were subcutaneously injected into the left forelimb of each nude mouse. Biodistribution and imaging studies were conducted when the tumour volume reached at least 1.0 × 1.0 × 1.0 cm^3.

[7] = test system: AR42J tumour-bearing mice; test: Micro-PET/CT imaging of AR42J tumour-bearing nude mice; conditions: mouse, in vivo
Method: as §2
(§3) Six (3 female and 3 male) mice with AR42J tumour xenografts (15–20 g) were used in the imaging study. All tumour-bearing mice were anaesthetized by intranasal inhalation of isoflurane. […] Images were acquired and reconstructed using micro-PET/CT at 30 min and 2 h after intravenous injection.

[8] = as above; conditions: both sexes, nude, mouse, in vivo, iv, 2.96 MBq, total radioactivity
Method: as §2, §3

[9] = Lipid-water partition (log Po/w), octanol water system; assay type: physicochemical
Method: The lipid-water partition (logP) of ^68Ga-labelled complexes was determined in the octanol water system by following the procedure mentioned below. In brief, 490 μL of ultrapure water was added to each of three centrifuge tubes containing 0.5 mL of saturated n-octanol and then combined with 10 μL (1.85 MBq/0.05 mCi) of freshly prepared radiolabelled complexes by ultrasonication (3 min). The centrifuge tube was allowed to stand for approximately 1 min for the liquid to become stratified. The upper and lower liquids were defined as groups A (A1, A2, A3) and B (B1, B2, B3), accounting for the organic and aqueous phases, respectively. Then, 0.1 mL was retrieved from each of the 6 sections. The radioactivity (CPM) of both phases was determined using a gamma counter, and the lipid-water partition coefficient was calculated as follows: logP = log (A-background)/(B-background). The average of three tubes was recorded as the logP.

With O=C(O)CN1CCN(CC(=O)O)CCN(CC(=O)O)CCN(CC(=O)O)CC1 [DOTA, 1,4,7,10-tetraazacyclododecane-1,4,7,10-tetraacetic acid] as the compound, how does the “log stability constant of the ^68Ga complex” value ([1]; DOTA ^68Ga complex, pseudo-octahedral geometry) read?
Its value is 21.33.

For O=C(O)CN1CCN(CC(=O)O)CCN(CC(=O)O)CC1 [NOTA, 1,4,7-triazacyclononane-1,4,7-triacetic acid], which “log stability constant of the ^68Ga complex” value ([1]; NOTA ^68Ga complex, octahedral) is on record?
Its value is 30.98.

With C[C@@H](O)[C@H](NC(=O)[C@@H]1CSSC[C@H](NC(=O)[C@@H](Cc2ccccc2)NC(=O)CN2CCN(CC(=O)O)CCN(CC(=O)O)CCN(CC(=O)O)CC2)C(=O)N[C@@H](Cc2ccc(O)cc2)C(=O)N[C@H](Cc2c[nH]c3ccccc23)C(=O)N[C@@H](CCCCN)C(=O)N[C@@H]([C@@H](C)O)C(=O)N1)C(=O)O [^68Ga-DOTA-TATE, metal not drawn] as the compound, how does the SUV ([2]; both sexes, 1.9 MBq/kg, SUVmax Adrenals, average) read?
Its SUV is 15.2 SUV.

And the SUV ([2]; both sexes, 1.9 MBq/kg, SUVmax Blood pool, average)?
The SUV was 0.9 SUV.

What about the SUV ([2]; both sexes, 1.9 MBq/kg, SUVmax Bone marrow, average) of the same compound?
The SUV was 0.8 SUV.

And the SUV ([2]; both sexes, 1.9 MBq/kg, SUVmax Kidneys, average)?
The SUV was 14.5 SUV.

And the SUV ([2]; both sexes, 1.9 MBq/kg, SUVmax Large bowel, average)?
Its SUV is 2.2 SUV.

What about the SUV ([2]; both sexes, 1.9 MBq/kg, SUVmax Liver, average) of the same compound?
Its SUV is 10.1 SUV.

And the SUV ([2]; both sexes, 1.9 MBq/kg, SUVmax Lungs, average)?
Its SUV is 0.8 SUV.

And the SUV ([2]; both sexes, 1.9 MBq/kg, SUVmax Lymph nodes, average)?
The SUV was 1.1 SUV.

What about the SUV ([2]; both sexes, 1.9 MBq/kg, SUVmax Palatine tonsil, average) of the same compound?
Its SUV is 2.6 SUV.

What about the SUV ([2]; both sexes, 1.9 MBq/kg, SUVmax Pancreas, average) of the same compound?
Its SUV is 6.2 SUV.

And the SUV ([2]; both sexes, 1.9 MBq/kg, SUVmax Small bowel, average)?
Its SUV is 3.4 SUV.

And the SUV ([2]; both sexes, 1.9 MBq/kg, SUVmax Spleen, average)?
The SUV was 26.9 SUV.

What about the SUV ([2]; both sexes, 1.9 MBq/kg, SUVmax Stomach, average) of the same compound?
Its SUV is 6.1 SUV.

And the SUV ([2]; both sexes, 1.9 MBq/kg, SUVmax Submandibular, average)?
Its SUV is 3.4 SUV.

And the SUV ([2]; both sexes, 1.9 MBq/kg, SUVmax Thymus, average)?
The SUV was 1.2 SUV.

What about the SUV ([2]; both sexes, iv, 1.9 MBq/kg, SUVmax Breast, average) of the same compound?
The SUV was 0.6 SUV.

What about the SUV ([2]; iv, 2.52 mCi, SUVmax kidney, single volunteer) of the same compound?
The SUV was 13.9 SUV.

And the SUV ([2]; iv, 2.52 mCi, SUVmax liver, single volunteer)?
Its SUV is 9.4 SUV.

What about the SUV ([2]; iv, 2.52 mCi, SUVmax pituitary, single volunteer) of the same compound?
The SUV was 7.74 SUV.

What about the SUV ([2]; iv, 2.52 mCi, SUVmax spleen, single volunteer) of the same compound?
The SUV was 25.5 SUV.

What about the SUV ([2]; iv, 2.8 mCi, SUVmax liver, single volunteer) of the same compound?
Its SUV is 7.8 SUV.

And the SUV ([2]; iv, 2.8 mCi, SUVmax spleen, single volunteer)?
The SUV was 16.3 SUV.

What about the “SUVmax Blood pool, range” value [3] of the same compound?
Its value is 0.6~1.4.

What about the “SUVmax Bone marrow, range” value [3] of the same compound?
Its value is 0.5~1.3.

What about the “SUVmax Kidneys, range” value [3] of the same compound?
Its value is 11.2~17.8.

What about the “SUVmax Large bowel, range” value [3] of the same compound?
The value was 1.6~3.7.

What about the “SUVmax Lungs, range” value [3] of the same compound?
Its value is 0.5~1.3.

And the “SUVmax Palatine tonsil, range” value [3]?
The value was 1.2~4.1.

What about the “SUVmax Parotid gland, range” value [3] of the same compound?
Its value is 1.9~5.4.

And the “SUVmax Pituitary gland, range” value [3]?
Its value is 2.4~7.9.

And the “SUVmax Small bowel, range” value [3]?
Its value is 2.2~4.9.

And the “SUVmax Spleen, range” value [3]?
Its value is 20.1~33.5.

What about the “SUVmax Stomach, range” value [3] of the same compound?
The value was 3.1~8.3.

And the “SUVmax Submandibular, range” value [3]?
The value was 1.7~5.7.

What about the “SUVmax Thymus, range” value [3] of the same compound?
Its value is 0.7~1.5.

What about the “SUVmax kidneys, single value” [3] of the same compound?
Its value is 17.8.

And the “SUVmax lung tissue, single value” [3]?
The value was 1.3.

What about the “SUVmax pituitary gland, single value” [3] of the same compound?
The value was 7.9.

And the “SUVmax spleen, single value” [3]?
Its value is 33.5.

And the “SUVmax stomach wall, single value” [3]?
The value was 8.3.

What about the “radioactivity in the gallbladder” value [3] of the same compound?
The value was “No radioactivity was seen”.

What about the “uptake in the brain” value [3] of the same compound?
Its value is “not taken up in the brain”.

What about the fraction unbound [4] of the same compound?
Its fraction unbound is 0.694.

What about the tissue uptake at 0.25 h ([6]; %ID/g Blood) of the same compound?
Its tissue uptake at 0.25 h is 3.03 ± 1.96 %ID/g.

What about the tissue uptake at 1 h ([6]; %ID/g Blood) of the same compound?
The tissue uptake at 1 h was 0.35 ± 0.2 %ID/g.

And the tissue uptake at 2 h ([6]; %ID/g Blood)?
Its tissue uptake at 2 h is 0.05 ± 0.02 %ID/g.

What about the tissue uptake at 0.25 h ([6]; %ID/g Gallbladder) of the same compound?
Its tissue uptake at 0.25 h is 1.47 ± 0.62 %ID/g.

What about the tissue uptake at 0.25 h ([6]; %ID/g Intestines) of the same compound?
Its tissue uptake at 0.25 h is 1.56 ± 1.47 %ID/g.

What about the tissue uptake at 0.5 h ([6]; %ID/g Intestines) of the same compound?
The tissue uptake at 0.5 h was 1.58 ± 1.77 %ID/g.

And the tissue uptake at 2 h ([6]; %ID/g Intestines)?
Its tissue uptake at 2 h is 0.23 ± 0.15 %ID/g.

And the tissue uptake at 0.25 h ([6]; %ID/g Kidney)?
Its tissue uptake at 0.25 h is 10.3 ± 8.89 %ID/g.

And the tissue uptake at 0.5 h ([6]; %ID/g Kidney)?
The tissue uptake at 0.5 h was 8.12 ± 2.71 %ID/g.

What about the tissue uptake at 1 h ([6]; %ID/g Kidney) of the same compound?
Its tissue uptake at 1 h is 2.82 ± 2.54 %ID/g.

What about the tissue uptake at 2 h ([6]; %ID/g Kidney) of the same compound?
Its tissue uptake at 2 h is 1.49 ± 0.57 %ID/g.

And the tissue uptake at 0.25 h ([6]; %ID/g Liver)?
Its tissue uptake at 0.25 h is 1.27 ± 0.77 %ID/g.

What about the tissue uptake at 0.5 h ([6]; %ID/g Liver) of the same compound?
The tissue uptake at 0.5 h was 0.61 ± 0.35 %ID/g.

And the tissue uptake at 1 h ([6]; %ID/g Liver)?
Its tissue uptake at 1 h is 0.34 ± 0.25 %ID/g.

And the tissue uptake at 2 h ([6]; %ID/g Liver)?
Its tissue uptake at 2 h is 0.08 ± 0.07 %ID/g.

What about the tissue uptake at 0.5 h ([6]; %ID/g Lungs) of the same compound?
The tissue uptake at 0.5 h was 2.86 ± 1.47 %ID/g.

What about the tissue uptake at 1 h ([6]; %ID/g Lungs) of the same compound?
Its tissue uptake at 1 h is 4.62 ± 3.42 %ID/g.

What about the tissue uptake at 2 h ([6]; %ID/g Lungs) of the same compound?
The tissue uptake at 2 h was 0.98 ± 0.22 %ID/g.

What about the tissue uptake at 0.25 h ([6]; %ID/g Muscle) of the same compound?
The tissue uptake at 0.25 h was 1.18 ± 1.26 %ID/g.

And the tissue uptake at 2 h ([6]; %ID/g Muscle)?
Its tissue uptake at 2 h is 0.04 ± 0.01 %ID/g.

And the tissue uptake at 0.25 h ([6]; %ID/g Skeleton)?
Its tissue uptake at 0.25 h is 1.94 ± 0.81 %ID/g.

And the tissue uptake at 0.5 h ([6]; %ID/g Skeleton)?
Its tissue uptake at 0.5 h is 1.1 ± 0.63 %ID/g.

What about the tissue uptake at 1 h ([6]; %ID/g Skeleton) of the same compound?
Its tissue uptake at 1 h is 0.8 ± 0.73 %ID/g.

What about the tissue uptake at 2 h ([6]; %ID/g Skeleton) of the same compound?
The tissue uptake at 2 h was 0.17 ± 0.06 %ID/g.

And the tissue uptake at 0.25 h ([6]; %ID/g Spleen)?
The tissue uptake at 0.25 h was 3.84 ± 4.03 %ID/g.

And the tissue uptake at 0.5 h ([6]; %ID/g Spleen)?
Its tissue uptake at 0.5 h is 1.48 ± 0.84 %ID/g.

And the tissue uptake at 1 h ([6]; %ID/g Spleen)?
The tissue uptake at 1 h was 1.92 ± 1.75 %ID/g.

What about the tissue uptake at 2 h ([6]; %ID/g Spleen) of the same compound?
Its tissue uptake at 2 h is 0.21 ± 0.19 %ID/g.

What about the tissue uptake at 0.25 h ([6]; %ID/g Stomach) of the same compound?
The tissue uptake at 0.25 h was 4.24 ± 2.66 %ID/g.

And the tissue uptake at 0.5 h ([6]; %ID/g Stomach)?
Its tissue uptake at 0.5 h is 0.98 ± 0.49 %ID/g.

And the tissue uptake at 1 h ([6]; %ID/g Stomach)?
Its tissue uptake at 1 h is 4.26 ± 2.58 %ID/g.

And the tissue uptake at 0.5 h ([6]; %ID/g Tumour)?
Its tissue uptake at 0.5 h is 3.62 ± 1.94 %ID/g.

And the tissue uptake at 1 h ([6]; %ID/g Tumour)?
The tissue uptake at 1 h was 3.14 ± 2.07 %ID/g.

And the tissue uptake at 2 h ([6]; %ID/g Tumour)?
Its tissue uptake at 2 h is 2.3 ± 1.34 %ID/g.

And the “gallbladder radioactivity on micro-PET/CT” value [7]?
Its value is “minimal gallbladder activity”.

What about the SUV at 0.5 h [8] of the same compound?
The SUV at 0.5 h was 2.87 SUV.

And the SUV at 2 h [8]?
The SUV at 2 h was 1.83 SUV.

What about the “log Po/w (partition coefficient)” value [9] of the same compound?
The value was “− 2.72 ± 0.16”.
